Laboratory results as given in publication PMC4866751, “Bacillus licheniformis Contains Two More PerR-Like Proteins in Addition to PerR, Fur, and Zur Orthologues” (PLoS ONE, 2016).
Each block holds one molecule with its values, some of them ahead of it.

Experiments:
[1] = biological target: FurBL (BL05249) (Bacillus licheniformis ATCC14580); test: SEC; Superdex 200 HiLoad 16/60 gel filtration, Chelex-100-treated buffer A (20 mM Tris-HCl, pH 8.0, 0.1 M NaCl, 5% glycerol); oligomeric state judged by elution profile in the last purification step
[2] = biological target: ZurBL (BL03703) (Bacillus licheniformis ATCC14580); test: as above
[3] = biological target: PerRBL (BL00075) (Bacillus licheniformis ATCC14580); test: as above
[4] = test system: PerR2 (BL00690) (Bacillus licheniformis ATCC 14580); test: EMSA; conditions: EMSA: 20 mM Tris-HCl pH 8.0, 50 mM KCl, 5% glycerol, 50 ug/ml BSA, 100 uM MnCl2; 6% PAGE in 45 mM Tris-borate with 100 uM MnCl2; temperature not stated
[5] = biological target: the molecule itself; test: SEC; Superdex 200 HiLoad 16/60 gel filtration, Chelex-100-treated buffer A (20 mM Tris-HCl, pH 8.0, 0.1 M NaCl, 5% glycerol); oligomeric state judged by elution profile in the last purification step

- stoichiometry N [1]: 2
Molecule: FurBL (BL05249) (natural protein)

- stoichiometry N [2]: 2
Molecule: ZurBL (BL03703) (natural protein)

- stoichiometry N [3]: 2
Molecule: PerRBL (BL00075) (natural protein)

Molecule: mrgA promoter fragment with PerR box (273 bp)
- Kd [4]: 70 nM

B1: PerR2 (BL00690) (natural protein, Bacillus licheniformis ATCC14580, UniProt Q62UQ7 1-154, looked up)
chain: MENETNVKQEAMAQLKRKGIRMTPQRLAIYHYFLANRNHPTIAEIQQSLREIYPAVSTATIYNTIRYFKQEGLIKEMGFTDPLRFDLALEEHDHVICEVCGKIVDFHCPQLEKVKDIAARLTGFKVTHHRLELYGICNDCQAKRKYAAKEKGVR
notes: PerR-like protein BL00690 of Bacillus licheniformis ATCC14580; ORF cloned into the NcoI and BamHI sites of pET-16b (pJL202); Contains structural Zn2+ (~0.8 per monomer); source: E. coli BL21 (DE3) pLysS, purified (heparin-Sepharose, SP-Sepharose, Superdex 200)
- stoichiometry N [5]: 2
